Here are results for two molecules from paper PMC5056995.

The target of data set [1] is T1, insulin receptor extracellular domain (EC-IR) (UniProt P06213 28-956). Briefly: filter binding with RT-qPCR.
Data set [2] deals with T1, insulin receptor extracellular domain …. Description: ELASA.

T1 sequence (P06213 28-956): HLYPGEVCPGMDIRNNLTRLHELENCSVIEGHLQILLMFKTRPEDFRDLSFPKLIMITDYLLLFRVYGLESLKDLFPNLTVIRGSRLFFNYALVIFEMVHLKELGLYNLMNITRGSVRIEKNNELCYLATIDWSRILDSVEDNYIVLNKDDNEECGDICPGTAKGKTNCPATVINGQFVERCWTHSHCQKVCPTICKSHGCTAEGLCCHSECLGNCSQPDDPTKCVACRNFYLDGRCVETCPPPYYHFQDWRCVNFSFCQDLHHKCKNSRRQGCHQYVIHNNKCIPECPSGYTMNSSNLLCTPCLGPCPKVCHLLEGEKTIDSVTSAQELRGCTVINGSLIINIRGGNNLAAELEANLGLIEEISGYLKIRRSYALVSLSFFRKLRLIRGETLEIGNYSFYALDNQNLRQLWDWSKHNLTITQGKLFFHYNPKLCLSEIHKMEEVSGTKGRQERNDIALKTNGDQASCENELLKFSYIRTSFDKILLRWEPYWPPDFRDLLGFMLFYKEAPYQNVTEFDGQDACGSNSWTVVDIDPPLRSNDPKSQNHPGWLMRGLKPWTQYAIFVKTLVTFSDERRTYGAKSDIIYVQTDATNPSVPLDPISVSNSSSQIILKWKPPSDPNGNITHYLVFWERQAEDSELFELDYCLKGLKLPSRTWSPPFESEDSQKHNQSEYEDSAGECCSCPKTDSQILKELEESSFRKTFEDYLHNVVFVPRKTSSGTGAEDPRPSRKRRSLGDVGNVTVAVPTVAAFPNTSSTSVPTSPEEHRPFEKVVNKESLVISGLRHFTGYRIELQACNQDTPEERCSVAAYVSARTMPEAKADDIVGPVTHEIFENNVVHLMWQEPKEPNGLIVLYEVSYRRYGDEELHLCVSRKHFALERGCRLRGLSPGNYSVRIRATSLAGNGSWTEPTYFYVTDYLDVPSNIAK

B1: GL56 (seq5/Gi-2) (XNA)
RNA: GGAGACAAGAAUAAACGCUCAAUGAUUUUGCAGCACUUCUUGUUAUCUUAACGAACUGUUGAUGAUUCGACAGGAGGCUCACAACAGGC
modifications: 2'-fluoro pyrimidines (all C and U), RNA purines
Consider B1, for which, in data set [1], the binding result is reported as “binds”.

B2: GL56 5'-biotin (printed as GL56.T in ELASA methods) (XNA)
RNA: GGAGACAAGAAUAAACGCUCAAUGAUUUUGCAGCACUUCUUGUUAUCUUAACGAACUGUUGAUGAUUCGACAGGAGGCUCACAACAGGC
modifications: 2'-fluoro pyrimidines (all C and U), RNA purines
On to B2, for which the binding result in data set [2] is reported as “binds”.
